# Source: the supplement of paper PMC6757056
# ± gives the standard deviation of the averaged measurements.
# B1: library; a variant is named by its letters at N, in order (parent)
# chain: GCUGUCACCGAGAAACUGUGAAGUAUAUCUUAAACCUGGGCACUUAAAAGAUAUAUGGAGUUAGUAGUGCAACCUGCUCGGUCUGAUGAGUCCNNNNNNGGACGAAACAGC
# Legend:
# cyclic di-GMP [1] = variants of: B1; assay: FACS-Seq fitted mean relative fluorescence mCherry/BFP without ligand (log10 relative fluorescence); HEK293T; ligand: cyclic di-GMP (c-di-GMP-II aptamer); higher = higher reporter protein expression; settings: ligand present: no
# Summary of the method: (§1)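 Fluorescence figures are normalized fitted normal means of sequenced bin counts. Enriched, lentivirally transduced HEK293T libraries with a ribozyme-switch mCherry reporter and EF1α-BFP were held 48 h with or without ligand, then sorted into 6 mCherry/BFP bins. PCR-amplified, barcoded genomic DNA from each bin was sequenced on MiSeq. Means of log10(mCherry/BFP) were scaled to five spiked-in control ribozymes.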
# cyclic di-GMP [2] = variants of: B1; assay: normalized RNA/DNA level without ligand (relative to sTRSVctl = 100) (log10 (% of sTRSVctl)); HEK293T; ligand: cyclic di-GMP (c-di-GMP-II aptamer); higher = less ribozyme self-cleavage, higher mRNA level; settings: reporter: mCherry (pCS4076), ligand present: no
# Summary of the method: (§2)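 Library plasmids carrying ribozyme switches linked to mCherry, or to eGFP in some ligand experiments, were transfected into HEK293T at 4 µg per 6-well well, with any ligand added 1 h earlier. Seventy-two hours on, total RNA was extracted with EDTA and reverse-transcribed, amplified, barcoded and sequenced. RNA level was RNA over DNA reads normalized to a spiked-in non-cleaving sequence or to the top sequences, then scaled and log-transformed. The top set was 25 sequences, the transform was ×100 and log10, and sequences needed ≥100 DNA reads.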
# cyclic di-GMP [3] = variants of: B1; assay: FACS-Seq fitted mean relative fluorescence mCherry/BFP with ligand (log10 relative fluorescence); HEK293T; ligand: cyclic di-GMP (c-di-GMP-II aptamer); ligand concentration (+) FACS-Seq: 1 mM; higher = higher reporter protein expression; settings: ligand present: yes
# Summary of the method: as §1
# cyclic di-GMP [4] = variants of: B1; assay: normalized RNA/DNA level with ligand (relative to sTRSVctl = 100) (log10 (% of sTRSVctl)); HEK293T; ligand: cyclic di-GMP (c-di-GMP-II aptamer); ligand concentration (+) RNA-Seq: 1 mM; higher = less ribozyme self-cleavage, higher mRNA level; settings: reporter: mCherry (pCS4076), ligand present: yes
# Summary of the method: as §2
Variant,FACS-Seq fitted mean (log10) (cyclic di-GMP [1]),normalized RNA/DNA level without ligand (log10) (cyclic di-GMP [2]),FACS-Seq fitted mean (log10) (cyclic di-GMP [3]),normalized RNA/DNA level with ligand (log10) (cyclic di-GMP [4])
CGGAAA,-0.619 ± 0.028,1.16 ± 0.075,-0.44 ± 0.058,1.28 ± 0.09
AGACUA,-0.122 ± 0.029,1.55 ± 0.038,0.261 ± 0.022,1.74 ± 0.14
CGAACA,-0.456 ± 0.075,1.58 ± 0.045,-0.276 ± 0.0035,1.7 ± 0.074
AGGCAG,-0.6414 ± 0.0033,1.758 ± 0.0064,-0.399 ± 0.084,1.83 ± 0.097
UGGGAA,-0.259 ± 0.11,1.57 ± 0.12,-0.113 ± 0.048,1.77 ± 0.089
CGCUGU,0.3 ± 0.092,1.776 ± 0.0024,0.433 ± 0.014,1.9 ± 0.13
CGCUGA,-0.177 ± 0.072,1.53 ± 0.057,0.0499 ± 0.0086,1.72 ± 0.067
UGACUC,-0.0587 ± 0.12,1.726 ± 0.0085,0.268 ± 0.025,1.86 ± 0.12
AGCGGU,-0.189 ± 0.03,1.64 ± 0.024,0.149 ± 0.093,1.8 ± 0.1
UGAAUC,-0.558 ± 0.0095,1.72 ± 0.011,-0.4 ± 0.028,1.85 ± 0.083
CGGAUA,-0.243 ± 0.057,1.19 ± 0.13,0.0478 ± 0.023,1.3 ± 0.1
CGGAUU,-0.623 ± 0.0076,1.4 ± 0.18,-0.3382 ± 0.0012,1.54 ± 0.038
CGAGCG,-0.783 ± 0.013,1.81 ± 0.023,-0.5474 ± 0.004,1.9 ± 0.12
CGAAAA,-0.423 ± 0.02,1.26 ± 0.084,-0.315 ± 0.07,1.47 ± 0.1
CGAAAC,-0.432 ± 0.051,1.62 ± 0.048,-0.267 ± 0.02,1.77 ± 0.097
CGGCCA,-0.425 ± 0.033,1.57 ± 0.099,-0.137 ± 0.0032,1.73 ± 0.11
CGACUA,-0.6395 ± 0.004,1.35 ± 0.17,-0.239 ± 0.0063,1.48 ± 0.053
CGACUG,-0.0298 ± 0.017,1.703 ± 0.0006,0.297 ± 0.061,1.83 ± 0.074
